Measured values as given in article PMC7979743 (Nature Communications, 2021).

B1: LMIV230-02 human monoclonal antibody (IgG1, kappa) (antibody, V domains shown)
VH: QVQLVQSGAEVKKPGSSVKVSCKASGGTFNSYGISWVRQAPGQGLEWVGGIIPSFGTADYAQKFQGRVTFTTDTSTSTAYMEVSSLRSEDTAVYYCAGSSWSSGTYYGRSAYWGQGTLVTVSS
VL: EIVMTQSPASLALSLGERATINCKSSQSVLYSSNNKNYLAWYQQKPGQPPKLLIYWASTRESGVPDRFSGSGSGTDFTLTISSLQAGDVAVYHCQQYYSTPYSFGQGTKLEIK
B2: LMIV230-01 human monoclonal antibody (IgG1, kappa) (antibody, V domains shown)
VH: QVQLVQSGAEVKKPGSSVKVSCKVSGGTFNTYAIIWVRQAPGQGLEWMGAIIPFQDRGQYAQKFQGRVTITADKSTSTAYMELSSLRSEDTAVYYCAKESGRAVADRWGQGTLVTVSS
VL: DIVMTQSPASLALSLGERATLYCRASHSISSWLAWYQQKPGKAPKLLIYKASTLESGVPSRFSGSGSGTEFTLTISSLQPDDFATYYCQQYKSYPWTFGQGTKLEIK

Target: ookinete protein Pfs25 (Plasmodium falciparum NF54 (3D7 entry …, UniProt P13829))
Assay: ELISA; Pfs25 ELISA; series of mAb concentrations, OD 450 nm

ookinete protein Pfs25 (Plasmodium falciparum NF54, sequence (P13829 17-196): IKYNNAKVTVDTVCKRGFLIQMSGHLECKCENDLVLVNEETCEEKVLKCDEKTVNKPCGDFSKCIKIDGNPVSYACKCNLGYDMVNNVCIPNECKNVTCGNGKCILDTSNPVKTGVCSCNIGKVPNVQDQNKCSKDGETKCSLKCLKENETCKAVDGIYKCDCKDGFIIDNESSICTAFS

| Binder | binding result |
| --- | --- |
| B1 | no binding |
| B2 | no binding |
